One may read the Kd as the free concentration of one partner at which half of the binding sites on the other are occupied at equilibrium, for simple one-to-one binding.

Where a chain is given by its changes, count along the chain named.

Data set [1] has as its target T1, ATHB17Δ113 (Arabidopsis thaliana, UniProt Q8S9N6 SEQ:1-162).
T1 chain: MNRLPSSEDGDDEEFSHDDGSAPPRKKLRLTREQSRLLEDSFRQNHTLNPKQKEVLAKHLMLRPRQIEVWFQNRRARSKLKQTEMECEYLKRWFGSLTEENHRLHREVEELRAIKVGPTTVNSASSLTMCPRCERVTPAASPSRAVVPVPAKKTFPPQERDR
Description: SPR; random DNA did not interact with any protein tested. The following applies: chain copies: 2 (homodimer, inferred). From the text:
(§1) HD-Zip I and II proteins bind to similar cis elements (CAAT(N)ATTG) under in vitro conditions (Sessa et al., EMBO J 12:3507-3517, 1993); Meijer et al., Mol Gen Genet 263:12-21, 2000); Frank et al., Plant J Cell Molec Biol 15:413-421, 1998); Deng et al., Plant Mol Biol 49:601-610, 2002). HD-Zip II members bind preferentially to the pseudo-palindromic sequence CAAT(C/G)ATTG (SEQ ID NO:55) (Sessa et al., EMBO J 12:3507-3517, 1993), whereas members of the HD-Zip I subfamily bind preferentially to a pseudo-palindromic sequence that differs from that of HD-Zip II at the central nucleotide (CAAT(A/T)ATTG) (SEQ ID NO:56) (Ariel et al., Trends Plant Sci 12:419-426, 2007). The DNA-binding properties of ATHB17Δ113 was tested in vitro using a surface plasmon resonance (SPR) assay for both class I and class II recognition sequences. The oligonucleotides used in this assay were […] (Class II), […] (Class I), and […] (non consensus), where the pseudo-palindromic sequences flanked by four nucleotides at the 5′ end and 3′end of the oligo are underlined.
(§2) ATHB17 amino acid substitutions and domain deletions were generated by comparing the ATHB17 protein sequence with those of mammalian HD and other plant HD-Zip transcription factors. These variants were evaluated for their DNA binding properties using SPR on Biacore 2000 as described in Example 2.

Data set [2] concerns the target T2, ATHB17Δ113-V182A-Q185A-N186A (Arabidopsis thaliana, UniProt Q8S9N6 SEQ:1-162).
T2 chain: T1 chain with V69A, Q72A, N73A
As to the kind of experiment: SPR; random DNA.
From the text: as §1, §2
For orientation: Surface plasmon resonance follows binding to a sensor surface in real time, without labels.

In data set [3] the target is T3, ATHB17Δ113-Δ138-195 (Arabidopsis thaliana).
T3 chain: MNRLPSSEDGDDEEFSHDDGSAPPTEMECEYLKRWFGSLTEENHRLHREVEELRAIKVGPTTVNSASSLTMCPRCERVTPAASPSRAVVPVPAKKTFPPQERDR
As to the kind of experiment: SPR; random DNA.
From the text: as §1, §2

In data set [4] the target is T4, ATHB17Δ113-F155L (Arabidopsis thaliana, UniProt Q8S9N6 SEQ:1-162).
T4 chain: T1 chain with W70F
As to the kind of experiment: SPR; random DNA. Conditions: chain copies: 2 (homodimer, inferred).
From the text: as §1, §2

Data set [5] has as its target T5, ATHB17Δ113-W183F (Arabidopsis thaliana, UniProt Q8S9N6 SEQ:1-162).
T5 chain: T1 chain with W70F
Description: SPR; random DNA. The following applies: chain copies: 2 (homodimer, inferred).
From the text: as §1, §2

Data set [6] deals with T6, ATHB17Δ113-C200A-C243S-C246S (Arabidopsis thaliana, UniProt Q8S9N6 SEQ:1-162).
T6 chain: T1 chain with C87A, C130S, C133S
Description: SPR; random DNA.
From the text: as §1, §2

The target of data set [7] is T7, ATHB17Δ113-Δ194-224 (Arabidopsis thaliana).
T7 chain: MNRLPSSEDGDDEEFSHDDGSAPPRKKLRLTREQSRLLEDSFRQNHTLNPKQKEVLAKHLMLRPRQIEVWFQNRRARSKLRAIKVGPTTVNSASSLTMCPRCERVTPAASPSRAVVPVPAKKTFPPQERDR
Description: SPR; random DNA.
From the text: as §1, §2

The target in data set [8] is T8, ATHB17Δ113-C243S (Arabidopsis thaliana, UniProt Q8S9N6 SEQ:1-162).
T8 chain: T1 chain with C130S
Description: SPR; random DNA. Conditions: chain copies: 2 (homodimer, inferred).
From the text: as §1, §2

Data set [9] deals with T9, ATHB17Δ113-T196A-L203A-L210A-L217A-L224A (Arabidopsis thaliana, UniProt Q8S9N6 SEQ:1-162).
T9 chain: T1 chain with T83A, L90A, L97A, L104A, L111A
As to the kind of experiment: SPR; random DNA.
From the text: as §1, §2

For data set [10], the target named is T10, ATHB17Δ113-C243S-C246S (Arabidopsis thaliana, UniProt Q8S9N6 SEQ:1-162).
T10 chain: T1 chain with C130S, C133S
As to the kind of experiment: SPR; random DNA. Conditions: chain copies: 2 (homodimer, inferred).
From the text: as §1, §2

The target in data set [11] is T11, ATHB17Δ113-C246S (Arabidopsis thaliana, UniProt Q8S9N6 SEQ:1-162).
T11 chain: T1 chain with C133S
As to the kind of experiment: SPR; random DNA. The following applies: chain copies: 2 (homodimer, inferred).
From the text: as §1, §2

In data set [12] the target is T3, ATHB17Δ113-Δ138-195. As to the kind of experiment: SPR; homeodomain deletion; similar results stated.
From the text: as §1, §2

Data set [13] addresses T1, ATHB17Δ113. As to the kind of experiment: SPR; Biacore 2000; unit from p118. The following applies: chain copies: 2 (homodimer, inferred).
In data set [14] the target is T12, ATHB17Δ113-R190K (Arabidopsis thaliana, UniProt Q8S9N6 SEQ:1-162, R190K (full-length numbering)).
T12 sequence: T1 chain with R77K
Description: SPR; no significant change vs parent. Conditions: chain copies: 2 (homodimer, inferred).

In data set [15] the target is T2, ATHB17Δ113-V182A-Q185A-N186A. Description: SPR; loses interaction with BS1.
From the text: as §1, §2

For data set [16], the target named is T12, ATHB17Δ113-R190K. As to the kind of experiment: SPR; reduced affinity to BS2. Conditions: chain copies: 2 (homodimer, inferred).
Data set [17] deals with T3, ATHB17Δ113-Δ138-195. Description: SPR; homeodomain deletion.
From the text: as §1, §2

Data set [18] addresses T4, ATHB17Δ113-F155L. Description: SPR. Conditions: chain copies: 2 (homodimer, inferred).
From the text: as §1, §2

The target of data set [19] is T6, ATHB17Δ113-C200A-C243S-C246S. As to the kind of experiment: SPR.
From the text: as §1, §2

The target of data set [20] is T8, ATHB17Δ113-C243S. Description: SPR. Conditions: chain copies: 2 (homodimer, inferred).
From the text: as §1, §2

Data set [21] deals with T10, ATHB17Δ113-C243S-C246S. As to the kind of experiment: SPR. The following applies: chain copies: 2 (homodimer, inferred).
From the text: as §1, §2

The target of data set [22] is T11, ATHB17Δ113-C246S. Description: SPR. The following applies: chain copies: 2 (homodimer, inferred).
From the text: as §1, §2

Data set [23] deals with T1, ATHB17Δ113. As to the kind of experiment: SPR; Biacore 2000; kon 42.3e5, koff 880.6e-4. The following applies: chain copies: 2 (homodimer, inferred).
From the text: as §1, §2

The target of data set [24] is T5, ATHB17Δ113-W183F. Description: SPR; asterisked in table; text says 11 uM, significantly reduced but not completely suppressed. The following applies: chain copies: 2 (homodimer, inferred).
From the text: as §1, §2

For data set [25], the target named is T2, ATHB17Δ113-V182A-Q185A-N186A. As to the kind of experiment: SPR; no binding within the concentration range used.
From the text: as §1, §2

The target in data set [26] is T7, ATHB17Δ113-Δ194-224. As to the kind of experiment: SPR; leucine zipper deletion.
From the text: as §1, §2

In data set [27] the target is T9, ATHB17Δ113-T196A-L203A-L210A-L217A-L224A. Description: SPR; leucine zipper mutant.

B1: non consensus oligo (random DNA) (dsDNA)
DNA 1: CAGCTCAGTCTGACGGC
DNA 2: GCCGTCAGACTGAGCTG
As to B1, the binding result in data set [1], in data set [2], in [3], in data set [4], in data set [5] and in data set [6] was “no binding” each time. Further, the binding result in data set [7], in [8], in [9], in data set [10] and in data set [11] was “no binding” throughout.

B2: Class I oligo (BS1) (dsDNA)
DNA 1: CAGACAATTATTGCGGC
DNA 2: GCCGCAATAATTGTCTG
For B2, the binding result in [12] and in data set [15] was “no binding” throughout. The Kd was 37.7 nM in data set [13] and 25.7 nM in [14].

B3: Class II oligo (BS2) (dsDNA)
DNA 1: CAGACAATCATTGCGGC
DNA 2: GCCGCAATGATTGTCTG
In the case of B3, the Kd in data set [16] is 68.2 nM; in data set [18], 3630 nM; in [20], 82.2 nM; in data set [21] it was 41.1 nM; in [22], 63.6 nM; in data set [23], 20.4 nM. Also, the results for the Kd in data set [24] and in [26] were 11000 nM and 4800 nM, respectively. Also, the binding result in data set [17], in data set [19], in [25] and in [27] was “no binding” in each case.

These data come from patent US20210095300, “INTERFERING WITH HD-ZIP TRANSCRIPTION FACTOR REPRESSION OF GENE EXPRESSION TO PRODUCE PLANTS WITH ENHANCED TRAITS” (Monsanto Technology LLC, published 2021).
